Results as given in US10058586B2, “Use of human small leucine zipper protein in adipocyte differentiation procedure” (Korea University Research and Business Foundation, priority 2013, dated 2018).

Tests used:
[1] = system: FABP4 and other PPARγ2 target genes; assay: RT-PCR and real-time PCR of PPARγ2 target genes in differentiated preadipocytes of sLZIP TG mice; type: cell-based, mouse; details: sLZIP TG mice preadipocytes differentiated into adipocytes
Procedure: According to instructions of the manufacturer, a TRIzol reagent (Invitrogen, Carlsbad, Calif.) was added to directly lyse cells in a culture dish. Accupower RT PreMix (BioNeer, Daejeon, Korea) was used to synthesize cDNA from 2 μg of total RNA. A reaction was performed for 60 minutes at 42° C. and for 5 minutes at 94° C. PCR amplification was performed using oligomers listed in Table 2 and a Hipi PCR Mix Kit (ELPIS). As an internal control group, GAPDH was amplified. A PCR product was subjected to electrophoresis in 1-2% (w/v) agarose gel containing 0.5 μg/mL ethidium bromide. A size of the PCR product was measured by comparing it with 1 kb DNA ladder marker (Invitrogen). An intensity of bands amplified according to RT-PCR was analyzed using MultiImage™ Light Cabinet (version 5.5, Alpha Innotech Corp., San Leandro, Calif.).
Real-time PCR was performed in LightCycler 480 using a SYBR Green Master Mix (Roche, Mannheim, Germany). β-actin was used as an internal control group. A target gene expression level rate with respect to β-actin was calculated using CT method. A Ct value is defined as a PCR cycle number at which a fluorescence signal reaches a fixed target threshold. Experiments were technically repeated three times for each experiment.
Adipocyte differentiation is a well-regulated procedure. […] A promoter activity was measured according to luciferase analysis (FIG. 8B). […]

[2] = system: CREB element in the FABP4 enhancer; assay: Chromatin immunoprecipitation (ChIP) with HA-sLZIP in C3H10T1/2 cells; type: cell-based; details: RZD treated or not
Procedure: C3H10T1/2 cells grown in a 100-mm culture dish were infected with adenovirus HA-sLZIP. After the infection, the cells remained in a growth medium until the cells reaches 100% confluence, and the medium was exchanged with a differentiation medium. The cells were washed with 1×PBS, the medium was treated with 1% formaldehyde for 10 minutes at room temperature, and then glycine was added for 5 minutes at a final concentration of 0.125 M. The cells were strapped with PBS, and centrifuged at 1000×g for 5 minutes at 4° C. ChIP analysis was performed such that anti-HA antibodies and anti-rabbit IgG serving as an internal control group were used and precipitated together with a DNA-protein complex. An enhancer region of FABP4 including a functional CREs was amplified from the prepared DNA.
A DNA binding ability of sLZIP with various elements in the FABP4 enhancer region was examined. For this purpose, recombinant His-sLZIP fusion proteins (3 μg) were incubated with γ-^32P-labeled oligonucleotide probes containing expected CREB binding elements (FIG. 7B). The γ-^32P-labeled oligonucleotide probes were incubated while an amount of purified His-sLZIPs was increased. For competition analysis, unlabeled CREB oligonucleotide probes of 100-fold excess were used and His antibodies were added to a reaction mixture on ice for additional 40 minutes (FIG. 7C). […]

B1: sLZIP: human small leucine-zipper protein, isoform of LZIP, 354 amino acids, no transmembrane domain; GenBank FJ263669, SEQ ID NO: 1 (protein, listed as Homo sapiens)
chain: MELELDAGDQDLLAFLLEESGDLGTAPDEAVRAPLDWALPLSEVPSDWEVDDLLCSLLSPPASLNILSSSNPCLVHHDHTYSLPRETVSMDLESESCRKEGTQMTPQHMEELAEQEIARLVLTDEEKSLLEKEGLILPETLPLTKTEEQILKRVRRKIRNKRSAQESRRKKKVYVGGLESRVLKYTAQNMELQNKVQLLEEQNLSLLDQLRKLQAMVIEISNKTSSSSMYSSDTRGSLPAEHGVLSRQLRALPSEDPYQLELPALQSEVPKDSTHQWLDGSDCVLQAPGNTSCLLHYMPQAPSAEPPLEWPFPDLFSEPLCRGPILPLQANLTRKGGWLPTGSPSVILQDRYSG
**Q.** Which results are given for B1?
**A.** expression of FABP4 and other PPARγ2 target genes (C/EBPα, LPL) mRNA [1]: down-regulated; recruitment to CREB element in the FABP4 enhancer (ChIP) [2]: gathered in the CREB element in the FABP4 enhancer
